From paper PMC11904528, “Discovery and preclinical development of a SdAb-based CAR-T technology for targeting CD33 in AML” (Molecular Therapy Oncology, 2025)
Where two headings read alike, the source gives them in different places.

B1: Nb17 (VHH)
VHH: QVQLQESGGGLVQTGGSLRLSCAVSGSTFSDYVIGWFRQAPGKERDFVAAITWSGGSTYYADSVKGRFIISRDNAKNTVYLQMNSLKPEGTAVYYCAALQLKGGSYYYPAPEEYSYWGQGTQVTVSS
notes: llama VHH; From a phage display library of a llama immunised with CD33; also called SdAb Nb17; source: E. coli expression strains (pETMod, OmpA periplasmic signal), purified (IMAC, IEC)
B2: Nb3 (VHH)
VHH: EVQLVESGGGLVQAGGSLSLSCAASGRTFSSYVMGWFRQAPGKEREFVAALTWSGGSTYYGDSAKGRFTISRDNAKNTVYLQMNSLKPEDTADYYCAAAALEGGAYHIATMSTYNYWGQGTQVTVSS
notes: llama VHH; From a phage display library of a llama immunised with CD33; also called SdAb Nb3; source: E. coli expression strains (pETMod, OmpA periplasmic signal), purified (IMAC, IEC)
B3: Nb1 (VHH)
VHH: QVQLQESGGGLVQVGGSLRLSCAASGRAFSTDIMAWFRQAPGKEREFVAAIKWNADNTYDTNSVKGRFTISRDNAKNTNYLEVNSLKPEDTAVYYCASGFSSRPYSDSDSRKYIYWGQGTQVTVSS
notes: llama VHH; From a phage display library of a llama immunised with CD33; also called SdAb Nb1; source: E. coli expression strains (pETMod, OmpA periplasmic signal), purified (IMAC, IEC)
B4: Nb8 (VHH)
VHH: EVQLVESGGGLVQDGGSLRLSCAASGRTFSSYVMGWFRQAPGKEREFVAAITWSGGSTYYADSVKGRFTISRDNAKNTVYLQMNSLKPEDTAVYYCAAFELGGGSYYYPDPNEYDYWGQGTQVTVSS
notes: llama VHH; From a phage display library of a llama immunised with CD33; also called SdAb Nb8; source: E. coli expression strains (pETMod, OmpA periplasmic signal), purified (IMAC, IEC)
B5: Nb16 (VHH)
VHH: EVQLVESGGGLVQTGGSLRLSCAASGRTFSPLAMGWFRQAPGREREFVAGITWSGGSLYYGDFVKGRFTISRDAAKNTLYLQMNSLKPEDTAVYYCAARDYSGDSNFQVTRPSEWDHWGQGTQVTVSS

Assays:
[1] = molecular target: T1, CD33 recombinant ectodomain (His-tagged) (Homo sapiens, UniProt P20138); experiment: ELISA; CD33-coated plates; SdAbs titrated and detected with anti-HA HRP; relative affinities (EC50)
T1 construct: CD33 (Siglec-3), human, recombinant ectodomain; The methods name the catalogue number for the immunogen; In SPR it was captured by its His tag on NTA and then cross-linked with EDC/NHS; also called Siglec-3; extracellular domain (ECD) of human CD33; source: bought: SinoBiological #12238-H08H; not shown: His tag, C-terminal, kept

[2] = molecular target: T1, CD33 recombinant ectodomain (His-tagged); experiment: SPR; Biacore X100, NTA chip; His-tagged CD33 ectodomain captured on nickel, cross-linked with EDC/NHS, nickel stripped with EDTA (388 RU); SdAbs as analytes at 1,000-12.3 nM; single-cycle kinetics; HBS-EP+; 10 uL/min, contact 300 s, dissociation 600 s; 1:1 binding model
[3] = molecular target: CD33 recombinant ectodomain (His-tagged) (human) (UniProt P20138); experiment: as above
[4] = molecular target: CD33 recombinant ectodomain (His-tagged) (human) (UniProt P20138); experiment: ELISA; CD33-coated plates; SdAbs titrated and detected with anti-HA HRP; relative affinities (EC50)
[5] = molecular target: T2, Biotinylated CD33 (bio-CD33) (Homo sapiens, UniProt P20138, biotin); experiment: BLI; Octet N1, streptavidin SAX2 sensors; bio-CD33 immobilised at 100 nM; in-tandem epitope binning: first antibody 400 nM, then a mixture of 400 nM first and 200 nM second antibody; PBS; conditions: both partners purified
T2 construct: CD33 (Siglec-3), biotinylated

[6] = molecular target: T1, CD33 recombinant ectodomain (His-tagged)

Sequence of CD33 recombinant ectodomain (His-tagged) (human) (P20138 18-259): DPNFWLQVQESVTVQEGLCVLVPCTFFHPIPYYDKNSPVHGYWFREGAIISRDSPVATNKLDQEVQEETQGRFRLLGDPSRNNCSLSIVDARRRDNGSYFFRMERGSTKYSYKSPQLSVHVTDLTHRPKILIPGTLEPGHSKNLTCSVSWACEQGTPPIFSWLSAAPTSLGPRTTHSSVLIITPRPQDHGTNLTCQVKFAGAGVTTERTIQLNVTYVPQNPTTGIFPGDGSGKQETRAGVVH
T1 sequence (P20138 18-259): as above
T2 sequence (P20138 whole entry, looked up, tested part not stated): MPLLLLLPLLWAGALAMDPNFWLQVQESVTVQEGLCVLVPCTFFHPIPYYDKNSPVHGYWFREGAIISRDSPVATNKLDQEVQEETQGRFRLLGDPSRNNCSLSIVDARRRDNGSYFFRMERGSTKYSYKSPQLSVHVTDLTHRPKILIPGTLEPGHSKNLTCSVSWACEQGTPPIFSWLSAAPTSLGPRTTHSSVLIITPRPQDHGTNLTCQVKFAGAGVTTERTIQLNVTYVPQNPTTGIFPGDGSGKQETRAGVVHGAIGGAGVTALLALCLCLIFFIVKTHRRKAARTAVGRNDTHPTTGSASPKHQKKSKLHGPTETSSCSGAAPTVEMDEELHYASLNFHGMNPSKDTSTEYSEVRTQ

Binder | EC50 ([1]; both partners purified) | Kd ([2]; both partners purified) | koff ([2]; both partners purified) | kon ([2]; both partners purified) | other results
B1 | 4.05 nM | 4.99 nM | 8.24e-05 s⁻¹ | 16500 M⁻¹ s⁻¹ | 
B2 |  |  |  |  | Kd [3]: 115 nM; koff [3]: 0.0017 s⁻¹; kon [3]: 14700 M⁻¹ s⁻¹; EC50 [4]: 16.7 nM; binding result [5]: binds
B3 | 6.4 nM | 29.9 nM | 0.0011 s⁻¹ | 36800 M⁻¹ s⁻¹ | 
B4 | 3.99 nM | 14.4 nM | 0.000356 s⁻¹ | 24800 M⁻¹ s⁻¹ | 
B5 |  |  |  |  | EC50 [1]: 1.91 nM; Kd [2]: 4.18 nM; koff [2]: 4.64e-05 s⁻¹; kon [2]: 11100 M⁻¹ s⁻¹; Kd [6]: 4.18 nM
